# Data: patent publication US20220387586A1 (Hoffmann-La Roche, published 2022)
# T1: recombinant Human LAG-3 Fc Chimera Protein (R&D Systems, 2319-L3) (human, UniProt P18627 29-450)
# T1 construct: Bought protein; also called huLAG3; not shown: Fc part of the chimera
# T1 sequence: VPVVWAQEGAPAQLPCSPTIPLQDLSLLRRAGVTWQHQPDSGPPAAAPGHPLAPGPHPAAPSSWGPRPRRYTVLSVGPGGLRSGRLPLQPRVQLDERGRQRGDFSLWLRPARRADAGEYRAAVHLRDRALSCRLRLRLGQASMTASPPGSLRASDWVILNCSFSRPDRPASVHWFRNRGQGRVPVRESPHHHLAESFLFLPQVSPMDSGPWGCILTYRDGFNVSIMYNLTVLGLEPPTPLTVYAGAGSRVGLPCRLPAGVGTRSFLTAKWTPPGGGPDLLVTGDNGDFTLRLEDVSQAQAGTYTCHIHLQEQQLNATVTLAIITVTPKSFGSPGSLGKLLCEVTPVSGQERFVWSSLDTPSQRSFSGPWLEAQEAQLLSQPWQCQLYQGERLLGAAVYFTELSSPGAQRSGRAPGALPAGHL
# T2: LAG3 on PD1+LAG3+ human U2OS cells (Homo sapiens (Human), UniProt P18627 23-525)
# T2 construct: also called cellular LAG3 (dimerization assay); not shown: subunit of the reporter enzyme fused to the cytosolic C-terminus
# T2 sequence: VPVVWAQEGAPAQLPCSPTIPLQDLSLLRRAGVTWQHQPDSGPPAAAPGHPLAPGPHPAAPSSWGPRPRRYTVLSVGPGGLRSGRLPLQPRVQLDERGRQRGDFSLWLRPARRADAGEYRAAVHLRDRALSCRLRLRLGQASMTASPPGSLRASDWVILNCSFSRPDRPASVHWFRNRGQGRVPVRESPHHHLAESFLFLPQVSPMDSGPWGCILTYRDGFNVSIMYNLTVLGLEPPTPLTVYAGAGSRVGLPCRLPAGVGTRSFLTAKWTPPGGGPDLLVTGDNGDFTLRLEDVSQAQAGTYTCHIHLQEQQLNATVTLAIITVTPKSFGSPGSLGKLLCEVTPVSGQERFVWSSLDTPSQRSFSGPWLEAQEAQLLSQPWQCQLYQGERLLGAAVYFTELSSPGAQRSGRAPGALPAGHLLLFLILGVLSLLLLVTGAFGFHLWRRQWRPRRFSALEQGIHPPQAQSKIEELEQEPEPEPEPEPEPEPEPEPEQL
# T3: LAG3 on cells (recombinant CHO cells expressing Lag3) (human, UniProt P18627 29-525)
# T3 construct: The cell ELISA paragraphs say only 'Lag3'; also called CHO-LAG3; Lag3 cells
# T3 sequence: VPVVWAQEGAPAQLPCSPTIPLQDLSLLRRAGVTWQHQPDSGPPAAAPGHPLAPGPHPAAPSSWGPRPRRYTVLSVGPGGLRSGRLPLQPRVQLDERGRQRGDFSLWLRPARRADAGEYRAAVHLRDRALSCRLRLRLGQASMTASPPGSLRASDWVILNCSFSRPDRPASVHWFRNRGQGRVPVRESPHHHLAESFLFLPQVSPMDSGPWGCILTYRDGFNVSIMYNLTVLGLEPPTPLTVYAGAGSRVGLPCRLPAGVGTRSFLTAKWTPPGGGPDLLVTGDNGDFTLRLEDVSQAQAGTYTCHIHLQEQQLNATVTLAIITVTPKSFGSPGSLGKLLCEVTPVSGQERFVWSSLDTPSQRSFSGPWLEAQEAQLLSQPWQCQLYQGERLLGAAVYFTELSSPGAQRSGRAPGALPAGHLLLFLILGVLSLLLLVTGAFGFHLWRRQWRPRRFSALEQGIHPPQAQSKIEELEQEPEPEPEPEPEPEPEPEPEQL
# T4: biotinylated-Lag3 (UniProt P18627 23-450, limits assumed, biotinylated)
# T4 construct: Probably a human LAG3 ECD construct; also called Lag3 (MHCII/ELISA)
# T4 sequence (looked up): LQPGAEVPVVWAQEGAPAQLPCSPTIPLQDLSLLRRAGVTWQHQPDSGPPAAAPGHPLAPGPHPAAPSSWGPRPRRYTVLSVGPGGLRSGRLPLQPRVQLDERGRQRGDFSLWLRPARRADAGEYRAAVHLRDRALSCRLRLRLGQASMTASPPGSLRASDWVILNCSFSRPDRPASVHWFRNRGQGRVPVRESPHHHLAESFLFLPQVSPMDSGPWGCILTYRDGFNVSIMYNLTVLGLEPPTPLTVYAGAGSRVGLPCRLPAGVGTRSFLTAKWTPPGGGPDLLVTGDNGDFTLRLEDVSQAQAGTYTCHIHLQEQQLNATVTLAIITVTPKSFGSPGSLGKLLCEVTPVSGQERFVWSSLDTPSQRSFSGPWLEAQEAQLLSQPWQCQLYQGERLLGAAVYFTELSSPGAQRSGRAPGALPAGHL
# Tests used:
# [1] = biological target: T1, recombinant Human LAG-3 Fc Chimera …; experiment: ELISA on coated Human LAG-3 Fc Chimera (rel. EC50)
# Protocol: After washing (3×90 μl/well with PBST-buffer) each well was incubated with 90 μl blocking buffer (PBS+2% BSA+0.05% Tween 20) for 1 h at room temperature. […] After washing (3×90 μl/well with PBST-buffer) 25 μl/well goat anti-Human Ig κ chain antibody-HRP conjugate (Milipore, AP502P) was added in a 1:2000 dilution and incubated at RT for 1 h. After washing (3×90 μl/well with PBST-buffer) 25 μl/well TMB substrate (Roche, 11835033001) was added and incubated for 2-10 min. Measurement took place on a Tecan Safire 2 instrument at 370/492 nm.
# [2] = biological target: PD1 on PD1+LAG3+ human U2OS cells (UniProt Q15116 25-288); experiment: cellular PD1/LAG3 dimerization assay on PD1+LAG3+ U2OS cells, chemoluminescence; the signal needs PD1 and LAG3 bound at once
# Protocol: (§1) For this specific interaction, the cytosolic C-terminal ends of both receptors were individually fused to heterologous subunits of a reporter enzyme.
# (§2) On the next day cell medium was discarded and replaced by fresh medium. Antibody or ligand dilutions were prepared and titrated amounts of indicated (bispecific) antibodies were added and incubated at 37° C. for 2 hours. Next, a substrate/buffer mix (e.g. PathHunterFlash detection reagent) was added and again incubated for 1h. For measuring chemoluminescence induced upon simultaneous binding and dimerization a Tecan infinite reader was used.
# [3] = biological target: T2, LAG3 on PD1+LAG3+ human U2OS cells; experiment: as above
# Protocol: as §1, §2
# [4] = biological target: T3, LAG3 on cells (recombinant CHO cells …); experiment: cell ELISA on recombinant CHO cells expressing Lag3 (rel. EC50)
# Protocol: After washing (1×90 μl in PBST) cells were fixed by addition of 30 μl/well glutaraldehyde to a final concentration of 0.05% (Sigma Cat.No: G5882), 10 min at room temperature. After washing (3×90 μl/well with PBST-buffer) 25 μl/well goat anti-Human Ig κ chain antibody-HRP conjugate (Milipore, AP502P) was added in a 1:1000 dilution and incubated at RT for 1 h. After washing (3×90 μl/well with PBST-buffer) 25 μl/well TMB substrate (Roche, 11835033001) was added and incubated for 6-10 min. Measurement took place on a Tecan Safire 2 instrument at 370/492 nm.
# [5] = biological target: T5, biotinylated PD1-ECD-AviHis (human, UniProt Q15116 25-170, biotinylated); experiment: ELISA on coated biotinylated PD1-ECD-AviHis (rel. EC50)
# T5 construct: also called huPD1; hu PD1; not shown: Avi-His tag
# Protocol: After washing (3×90 μl/well with PBST-buffer) 25 μl/well goat-anti-human H+L-POD (JIR, JIR109-036-098) was added in 1:5000 dilution and incubated at RT for 1 h on a shaker. After washing (3×90 μl/well with PBST-buffer) 25 μl/well of TMB substrate (Roche, 11835033001) was added and incubated until OD 2-3. Measurement took place at 370/492 nm.
# biotinylated-Lag3 = biological target: T4, biotinylated-Lag3; experiment: ELISA, inhibition of biotinylated-Lag3 binding to MHC-II on A375 cells (competitor MHC-II)
# Protocol: 25 μl/well of A375 cells (10000 cells/well) were seeded into tissue culture treated 384-well plates (Corning, 3701) and incubated at 37° C. overnight. […] After washing (1×90 μl in PBST) cells were fixed by addition of 30 μl/well glutaraldehyde to a final concentration of 0.05% (Sigma Cat.No: G5882), 10 min at room temperature. After washing (3×90 μl/well with PBST-buffer) 25 μl/well Poly-HRP40-Streptavidin (Fitzgerald, 65R-S104PHRPx) was added in a 1:2000 or 1:8000 dilution and incubated at RT for 1 h. After washing (3×90 μl/well with PBST-buffer) 25 μl/well TMB substrate (Roche, 11835033001) was added and incubated for 2 to 10 min. Measurement took place on a Tecan Safire 2 instrument at 370/492 nm.
# [6] = biological target: T6, full-length human PD1 on cells (human, UniProt Q15116 25-288); experiment: cell ELISA on CHO-K1 cells expressing full-length human PD1 (rel. EC50)
# T6 construct: also called CHO-PD1
# Protocol: (to avoid internalization). After washing carefully (1×90 μl/well PBST) cells were fixed by adding 30 μl/well 0.05% Glutaraldehyde (Sigma, Cat.No: G5882, 25%) diluted in 1×PBS-buffer and incubated for 10 min at RT. After washing (3×90 μl/well PBST) 25 μl/well secondary antibody was added for detection: goat-anti-human H+L-POD (JIR, JIR109-036-088)/Sheep-anti-mouse-POD (GE NA9310) followed by 1 h incubation at RT on shaker. After washing (3×90 μl/well PBST) 25 μl/well TMB substrate solution (Roche 11835033001) was added and incubated until OD 1.0-2.0. Plates were measured at 370/492 nm.
# T5 sequence (Q15116 25-170): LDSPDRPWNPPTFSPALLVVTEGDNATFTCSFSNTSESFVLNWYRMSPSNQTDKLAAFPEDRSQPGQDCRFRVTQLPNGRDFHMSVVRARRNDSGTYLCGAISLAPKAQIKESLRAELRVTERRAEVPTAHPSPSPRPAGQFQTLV
# Chain of PD1 on PD1+LAG3+ human U2OS cells (Q15116 25-288): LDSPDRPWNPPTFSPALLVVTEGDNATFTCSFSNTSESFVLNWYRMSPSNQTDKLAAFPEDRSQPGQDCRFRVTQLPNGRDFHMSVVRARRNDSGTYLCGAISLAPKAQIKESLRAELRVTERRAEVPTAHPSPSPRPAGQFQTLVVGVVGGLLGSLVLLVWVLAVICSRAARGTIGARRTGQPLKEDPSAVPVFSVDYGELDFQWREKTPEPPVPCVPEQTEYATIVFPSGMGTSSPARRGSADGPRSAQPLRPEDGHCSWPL
# T6 sequence (Q15116 25-288 limits assumed): as the sequence (Q15116 25-288) above
binder,measurement,setting,value
"PD1/LAG3 1252 (bispecific antibody, human IgG1, kappa, L234A L235A, 2+1 format: two LAG3 Fabs, one PD1 crossFab fused to the C-terminus of the Fc knob heavy chain) heavy 1: not shown heavy 2: QVQLQQWGAGLLKPSETLSLTCAVYGGSFSDYYWNWIRQPPGKGLEWIGEINHNGNTNSNPSLKSRVTLSLDTSKNQFSLKLRSVTAADTAVYYCAFGYSDYEYNWFDPWGQGTLVTVSSASTKGPSVFPLAPSSKSTSGGTAALGCLVEDYFPEPVTVSWNSGALTSGVHTFPAVLQSSGLYSLSSVVTVPSSSLGTQTYICNVNHKPSNTKVDEKVEPKSCDKTHTCPPCPAPEAAGGPSVFLFPPKPKDTLMISRTPEVTCVVVDVSHEDPEVKFNWYVDGVEVHNAKTKPREEQYNSTYRVVSVLTVLHQDWLNGKEYKCKVSNKALGAPIEKTISKAKGQPREPQVCTLPPSRDELTKNQVSLSCAVKGFYPSDIAVEWESNGQPENNYKTTPPVLDSDGSFFLVSKLTVDKSRWQQGNVFSCSVMHEALHNHYTQKSLSLSPGK light 1: DIVMTQSPDSLAVSLGERATINCKASESVDTSDNSFIHWYQQKPGQSPKLLIYRSSTLESGVPDRFSGSGSGTDFTLTISSLQAEDVAVYYCQQNYDVPWTFGQGTKVEIKSSASTKGPSVFPLAPSSKSTSGGTAALGCLVKDYFPEPVTVSWNSGALTSGVHTFPAVLQSSGLYSLSSVVTVPSSSLGTQTYICNVNHKPSNTKVDKKVEPKSC light 2: not shown",EC50,[1],0.02 nM
same,EC50 (read off the curve),[2],~0.06 µg/mL
same,EC50 (read off the curve),[3],~0.06 µg/mL
same,EC50,[4],0.64 nM
same,EC50,[5],0.03 nM
same,IC50,biotinylated-Lag3,0.47 nM
same,EC50,[6],0.31 nM
